In patent publication US20090228996A1, “Means and Methods for influencing Interactions Between Dc-Sign and Dc-Sign Ligands” (priority 2006, published 2009):

How the values were obtained:
Conditions in all cases: major milk proteins at 1/20 dilution of physiological concentration in human milk
[1] = target: T1, DC-SIGN on Raji-DC-SIGN cells (Homo sapiens, UniProt Q9NNX6); assay: gp120 bead adhesion assay, Raji-DC-SIGN cells; type: cell-based
T1 construct: expressed in transfected cells; host or cells: Raji cells (Raji-DC-SIGN)
T1 sequence (Q9NNX6 1-404): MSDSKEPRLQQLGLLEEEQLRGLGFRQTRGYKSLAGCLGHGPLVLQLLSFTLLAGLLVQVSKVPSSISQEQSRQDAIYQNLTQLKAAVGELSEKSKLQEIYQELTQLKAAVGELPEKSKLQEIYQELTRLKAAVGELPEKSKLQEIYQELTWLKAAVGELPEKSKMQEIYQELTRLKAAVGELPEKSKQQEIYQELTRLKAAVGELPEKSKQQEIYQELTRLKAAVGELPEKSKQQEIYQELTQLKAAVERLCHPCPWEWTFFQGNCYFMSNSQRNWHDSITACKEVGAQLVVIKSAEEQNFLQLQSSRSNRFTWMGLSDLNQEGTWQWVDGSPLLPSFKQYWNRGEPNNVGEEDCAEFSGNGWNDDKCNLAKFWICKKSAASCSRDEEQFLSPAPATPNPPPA
Method: (§1) gp120 bead adhesion assay. Beads were prepared as previously described (Geijtenbeek et al, 2000 a), in short, streptavidin was covalently coupled to Carboxylate-modified TransFluoSpheres (488/645 nm, 1.0 μm; molecular probes). The steptavidin-beads were incubated with biotinylated F(ab′)2 fragment goat-anti-human IgG (6 μg/ml; Jackson Immunoresearch) and subsequently incubated overnight with gp120-Fc chimera. Fifty thousand cells, Raji-DC-SIGN cells, immature DCs or Raji-L-SIGN cells, were pre-incubated with human milk or milk compounds, AZN-D1 (Geijtenbeek et al, 2000 a), AZN-D2 (Halary et al, 2002), EGTA or mannan for 30 minutes at RT. The ligand-coated beads (20 beads/cell) were added to the pre-incubated cells and incubated for 30 minutes at 37° C. after which the cells were washed with TSM containing 0.5% BSA. After washing, the cells were resuspended in 100 μl TSM-BSA buffer and the adhesion was measured by flow cytometry (BD Biosciences).
(§2) gp120 bead adhesion assay. Beads were prepared as previously described (Geijtenbeek et al, 2000 a), in short, streptavidin was covalently coupled to Carboxylate-modified TransFluoSpheres (488/645 nm, 1.0 μm; molecular probes). The steptavidin-beads were incubated with biotinylated F(ab′)2 fragment goat-anti-human IgG (6 μg/ml; Jackson Immunoresearch) and subsequently incubated overnight with the gp120-Fc chimera. Fifty thousand cells, Raji-DC-SIGN cells or iDCs were pre-incubated with human milk, AZN-D1 (Geijtenbeek et al, 2000 a), AZN-D2 (Halary et al, 2002), EGTA or mannan for 30 minutes at RT. The ligand-coated beads (20 beads/cell) were added to the pre-incubated cells and incubated for 30 minutes at 37° C. after which the cells were washed with TSM (20 mM Tris, 150 mM NaCl, 1 mM CaCl2, 2 mM MgCl2) containing 0.5% BSA. After washing, the cells were resuspended in 100 μl TSM-BSA buffer and the adhesion was measured by flow cytometry (BD Biosciences).

[2] = target: T2, DC-SIGN on iDCs (Homo sapiens, UniProt Q9NNX6); assay: gp120 bead adhesion assay, immature DCs; type: cell-based
T2 construct: endogenous in cells
T2 sequence (Q9NNX6 1-404): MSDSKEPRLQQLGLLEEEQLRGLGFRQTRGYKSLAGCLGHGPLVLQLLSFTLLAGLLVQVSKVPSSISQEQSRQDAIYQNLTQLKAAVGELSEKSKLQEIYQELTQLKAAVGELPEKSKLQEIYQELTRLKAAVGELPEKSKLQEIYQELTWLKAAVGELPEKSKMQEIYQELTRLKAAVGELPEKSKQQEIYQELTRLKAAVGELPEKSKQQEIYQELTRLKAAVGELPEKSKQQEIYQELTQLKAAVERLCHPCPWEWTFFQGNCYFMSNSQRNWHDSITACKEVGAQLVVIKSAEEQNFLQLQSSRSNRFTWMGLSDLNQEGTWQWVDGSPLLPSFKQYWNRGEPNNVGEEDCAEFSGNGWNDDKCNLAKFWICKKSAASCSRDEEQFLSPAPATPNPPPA
Method: as §1, §2

[3] = target: T3, DC-SIGN-Fc (Homo sapiens, UniProt Q9NNX6); assay: DC-SIGN-Fc binding ELISA
T3 construct: the extracellular portion of DC-SIGN (amino acids 64 to 404)
T3 sequence (Q9NNX6 64-404): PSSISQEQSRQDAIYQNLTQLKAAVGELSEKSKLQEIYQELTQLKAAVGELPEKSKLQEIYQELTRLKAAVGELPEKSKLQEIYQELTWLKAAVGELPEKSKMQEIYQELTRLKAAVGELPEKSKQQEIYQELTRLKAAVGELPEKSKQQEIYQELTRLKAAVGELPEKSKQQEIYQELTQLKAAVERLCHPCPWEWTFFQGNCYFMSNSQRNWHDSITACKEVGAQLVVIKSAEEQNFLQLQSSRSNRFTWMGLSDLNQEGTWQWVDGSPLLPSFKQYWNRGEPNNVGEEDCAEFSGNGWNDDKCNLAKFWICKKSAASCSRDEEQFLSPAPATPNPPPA
Method: DC-SIGN-Fc binding ELISA. The DC-SIGN-Fc chimera contained the extracellular portion of DC-SIGN (amino acids 64 to 404) fused at the C-terminus to a human immunoglobulin (Ig) G1 Fc fragment and has been previously described (Geijtenbeek et al, 2002). Human milk or human milk compounds were diluted in 0.2M NaHCO3, coated on ELISA plates (maxisorb plate; Nunc) and incubated overnight at 4° C. or 2 hours at 37° C. This was followed by blocking with TSM containing 1% BSA for 30 minutes at 37° C. before addition of soluble DC-SIGN-Fc (5 μg/ml) for 2 hours at RT, the binding was determined by incubation of a peroxidase labeled anti-IgG1 antibody for 30 minutes at RT. DC-SIGN-Fc binding specificity was determined by pre-incubation of the DC-SIGN-FC with either 50 μg/ml DC-SIGN specific mouse antibody AZN-D1 (Geijtenbeek et al, 2000 a) or 10 mM EGTA. Single-cycle-replication transmission assay. The assay was performed as previously described (Groot et al, 2005). In short mDCs and iDCs were incubated in a 96-well-plate (35−50×10^3 DC/well) with human milk for 30 minutes at 37° C. before addition of the virus (5 ng p24/well), which was incubated for 2 hours at 37° C. The DCs were washed twice with PBS before addition of 50×10^3 LuSIV cells. After 24 hours, LuSIV cells were harvested and resuspended in 50 μl lysis buffer (25 mM Tris-Cl 7.8, 2 mM DTT, 2 mM CDTA, 10% glycerol, 1% Triton X100). The cells were then incubated for 45 minutes at room temperature while shaking, followed by 10 minutes centrifugation at 3200×g. The supernatant was transferred to a white-solid 96 well plate (Corning Costar), and 150 μl of lucibuffer (100 μg/ml BSA, 6.6 mM ATP, 15 mM MgSO4, 25 mM glycylglycine) was added. 100 μl of DE(−)Luciferin (Roche Diagnostics GmbH) was injected per well (0.28 mg/ml lucibuffer excluding ATP). 50×10^3 LuSIV cells grown without DC or HIV-1 were used to obtain the background luciferase value.
DC-SIGN-Fc binding ELISA. The DC-SIGN-Fc chimera contained the extracellular portion of DC-SIGN (amino acids 64 to 404) fused at the C-terminus to a human immunoglobulin (Ig) G1 Fc fragment which has been previously described (Geijtenbeek et al, 2002). Human milk or BSSL were diluted in 0.2 M NaHCO3, coated on ELISA plates (maxisorb plate; Nunc) and incubated overnight at 4° C. or 2 hours at 37° C. This was followed by blocking with TSM containing 1% BSA for 30 minutes at 37° C. before addition of soluble DC-SIGN-Fc (5 μg/ml) for 2 hours at RT, the binding was determined by incubation of a peroxidase labeled anti-IgG1 antibody for 30 minutes at RT. DC-SIGN-Fc binding specificity was determined by pre-incubation of the DC-SIGN-Fc with either 50 μg/ml DC-SIGN specific mouse antibody AZN-D1 (Geijtenbeek et al, 2000 a) or 10 mM EGTA.

Molecule | gp120 binding to Raji-DC-SIGN [1] | gp120 binding to iDCs [2] | DC-SIGN-Fc binding to coated milk compound [3]
bovine β-casein: milk protein (NIZO Food Research) (protein, UniProt P02666 16-224, looked up) Beta-casein: RELEELNVPGEIVESLSSSEESITRINKKIEKFQSEEQQQTEDELQDKIHPFAQTQSLVYPFPGPIPNSLPQNIPPLTQTPVVVPPFLQPEVMGVSKVKEAMAPKHKEMPFPKYPVEPFTESQSLTLTDVENLHLPLPLLQSWMHQPHQPLPPTVMFPPQSVLSLSQSKVLPVPQKAVPYPQRDMPIQAFLLYQEPVLGPVRGPFPIIV | None of the tested human milk compounds could inhibit gp120 binding | None of the tested human milk compounds could inhibit gp120 binding | showed no binding
human α-lactalbumin: major human milk protein (Sigma) (protein, UniProt P00709 20-142, looked up) Alpha-lactalbumin: KQFTKCELSQLLKDIDGYGGIALPELICTMFHTSGYDTQAIVENNESTEYGLFQISNKLWCKSSQVPQSRNICDISCDKFLDDDITDDIMCAKKILDIKGIDYWLAHKALCTEKLEQWLCEKL | None of the tested human milk compounds could inhibit gp120 binding | None of the tested human milk compounds could inhibit gp120 binding | showed no binding
human SLPI: human milk protein SLPI (Sigma) (protein, UniProt P03973 26-132, looked up) Antileukoproteinase: SGKSFKAGVCPPKKSAQCLRYKKPECQSDWQCPGKKRCCPDTCGIKCLDPVDTPNPTRRKPGKCPVTYGQCLMLNPPNFCEMDGQCKRDLKCCMGMCGKSCVSPVKA | None of the tested human milk compounds could inhibit gp120 binding | None of the tested human milk compounds could inhibit gp120 binding | showed no binding
human lactoferrin: major human milk protein (Sigma-Aldrich) (protein, UniProt P02788 20-710, looked up) Lactotransferrin: GRRRSVQWCAVSQPEATKCFQWQRNMRKVRGPPVSCIKRDSPIQCIQAIAENRADAVTLDGGFIYEAGLAPYKLRPVAAEVYGTERQPRTHYYAVAVVKKGGSFQLNELQGLKSCHTGLRRTAGWNVPIGTLRPFLNWTGPPEPIEAAVARFFSASCVPGADKGQFPNLCRLCAGTGENKCAFSSQEPYFSYSGAFKCLRDGAGDVAFIRESTVFEDLSDEAERDEYELLCPDNTRKPVDKFKDCHLARVPSHAVVARSVNGKEDAIWNLLRQAQEKFGKDKSPKFQLFGSPSGQKDLLFKDSAIGFSRVPPRIDSGLYLGSGYFTAIQNLRKSEEEVAARRARVVWCAVGEQELRKCNQWSGLSEGSVTCSSASTTEDCIALVLKGEADAMSLDGGYVYTAGKCGLVPVLAENYKSQQSSDPDPNCVDRPVEGYLAVAVVRRSDTSLTWNSVKGKKSCHTAVDRTAGWNIPMGLLFNQTGSCKFDEYFSQSCAPGSDPRSNLCALCIGDEQGENKCVPNSNERYYGYTGAFRCLAENAGDVAFVKDVTVLQNTDGNNNEAWAKDLKLADFALLCLDGKRKPVTEARSCHLAMAPNHAVVSRMDKVERLKQVLLHQQAKFGRNGSDCPDKFCLFQSETKNLLFNDNTECLARLHGKTTYEKYLGPQYVAGITNLKKCSTSPLLEACEFLRK | None of the tested human milk compounds could inhibit gp120 binding | None of the tested human milk compounds could inhibit gp120 binding | showed no binding
